Legend:
[1] = OLINDA dosimetry to adult male from mouse biodistribution
T-cells (CD3) = assay: Immuno-PET ROI analysis of 89Zr-DFO-anti-CD3 after therapy (tumor infiltrating T-cells); format: in vivo, murine subjects
Protocol: FIG. 13A-13C describes a method and results for T-cell detection using immuno-positron emission tomography (PET).
FIG. 14A-14D show graphical representations of tumor infiltrating T-cell analysis after administration of a therapeutic compound or control. Infiltration was measured using immuno-positron emission tomography (PET).

RM1-PGLS tumors = format: in vivo, murine subjects
Protocol: FIG. 11A-11C show a visual schematic of RM1-PGLS tumor insertion in mice followed by T-cell population analysis (FIG. 11A), and tumor efficacy study analysis for in vivo tumor treatment with experimental ^177Lu-RIMS-1 compound compared with control compounds: ^177Lu-PSMA-617, unlabeled Lu-RIMS, and saline (FIG. 11B) measuring tumor volume (left), and percent survival (right).
Murine subjects were treated with RIMS compounds and tumor volume (FIG. 11B, left), subject viability measured as percent survival (FIG. 11B, right), subject weight (FIG. 11C), were described and analyzed as shown in FIGS. 11A-11C. Median overall survivability (OS) in murine subjects treated with RIMS compounds and control therapies.

in vivo = settings: C57BL/6J, mouse, total radioactivity
[2] = Biodistribution in a xenograft model of prostate cancer with PC-3 PiP (PSMA(+)) and PC-3 flu (PSMA(−)) tumors; format: in vivo, Male NCr nude mice; settings: male, mouse, total radioactivity, PC-3 PiP/PC-3 flu xenograft, NCr nude mice
Protocol: Biodistribution analyses of ^177Lu-RIMS-1 and ^177Lu-PSMA-617 were carried out in a xenograft model of prostate cancer with a PC-3 PiP tumor (PSMA(+)) on the left shoulder of a murine subject, and a PC-3 flu tumor (PSMA(−)) on the right should of a murine subject. Murine subjects examined were Male NCr nude mice.

[3] = system: CD8+ and CD4+ T-cell populations; assay: T-cell population analysis in spleen and tumor of RM1-PGLS bearing mice; format: in vivo; design: unit not given here; settings: RM1-PGLS bearing C57BL/6J mice
Protocol: FIG. 12A-12B show graphical representations of T-cell population analysis measuring cell viability in the spleen (FIG. 12A). and in the tumor (FIG. 12B) in vivo for subjects having RM1-PGLS tumors with either an experimental ^177Lu-RIMS compound, or a control compound selected from: ^177Lu-PSMA-617, unlabeled Lu-RIMS, or a control vehicle.
^177Lu-RIMS-1 and control compounds were evaluated for immune cell recruitment.

[4] = Biodistribution Blood (% ID/g ± SD)
[5] = Biodistribution Bone (% ID/g ± SD)
[6] = Biodistribution Heart (% ID/g ± SD)
[7] = Biodistribution Kidney (% ID/g ± SD)
[8] = Biodistribution Liver (% ID/g ± SD)
[9] = Biodistribution Muscle (% ID/g ± SD)
[10] = Biodistribution RM1-PGLS tumor (% ID/g ± SD)
[11] = Biodistribution Sm Int (% ID/g ± SD)
[12] = Biodistribution Spleen (% ID/g ± SD)
[13] = PSMA(+) PC-3 PiP tumor, read-out: Biodistribution PSMA (+) (PC3-PIP) tumor (% ID/g ± SD)
[14] = PSMA(-) PC-3 flu tumor, read-out: Biodistribution PSMA (−) (PC3-Flu) tumor (% ID/g ± SD)
[15] = blood, read-out: Biodistribution Blood (% ID/g ± SD)
[16] = bone, read-out: Biodistribution Bone (% ID/g ± SD)
[17] = heart, read-out: Biodistribution Heart (% ID/g ± SD)
[18] = kidney, read-out: Biodistribution Kidney (% ID/g ± SD)
[19] = liver, read-out: Biodistribution Liver (% ID/g ± SD)
[20] = small intestine, read-out: Biodistribution Sm Int (% ID/g ± SD)
[21] = spleen, read-out: Biodistribution Spleen (% ID/g ± SD)

## CCCCc1nc2c(N)nc3ccccc3c2n1Cc1ccc(CNC(=O)OCc2ccc(NC(=O)[C@H](C)NC(=O)[C@@H](NC(=O)CCCCC(=O)N[C@@H](CCCCNC(=O)CN3CCN(CC(=O)O)CCN(CC(=O)O)CCN(CC(=O)O)CC3)C(=O)NC[C@H]3CC[C@H](C(=O)N[C@@H](Cc4ccc5ccccc5c4)C(=O)NCCCC[C@H](NC(=O)N[C@@H](CCC(=O)O)C(=O)O)C(=O)O)CC3)C(C)C)cc2)cc1 [^177Lu-RIMS-1, metal not drawn]
[1]; Target Organ Adrenals
  OLINDA dosimetry to Adult Male, Adrenals: 8.71 μSv/MBq
[1]; Target Organ Brain
  OLINDA dosimetry to Adult Male, Brain: 0.02 μSv/MBq
[1]; Target Organ Esophagus
  OLINDA dosimetry to Adult Male, Esophagus: 2.03 μSv/MBq
[1]; Target Organ Eyes
  OLINDA dosimetry to Adult Male, Eyes: 0.02 μSv/MBq
[1]; Target Organ Gallbladder Wall
  OLINDA dosimetry to Adult Male, Gallbladder Wall: 7.09 μSv/MBq
[1]; Target Organ Heart Wall
  OLINDA dosimetry to Adult Male, Heart Wall: 16.60 μSv/MBq
[1]; Target Organ Kidneys
  OLINDA dosimetry to Adult Male, Kidneys: 262.00 μSv/MBq
[1]; Target Organ Left Colon
  OLINDA dosimetry to Adult Male, Left Colon: 1.26 μSv/MBq
[1]; Target Organ Liver
  OLINDA dosimetry to Adult Male, Liver: 219.00 μSv/MBq
[1]; Target Organ Lungs
  OLINDA dosimetry to Adult Male, Lungs: 15.10 μSv/MBq
[1]; Target Organ Osteogenic Cells
  OLINDA dosimetry to Adult Male, Osteogenic Cells: 3.70 μSv/MBq
[1]; Target Organ Pancreas
  OLINDA dosimetry to Adult Male, Pancreas: 2.49 μSv/MBq
[1]; Target Organ Prostate
  OLINDA dosimetry to Adult Male, Prostate: 0.34 μSv/MBq
[1]; Target Organ Rectum
  OLINDA dosimetry to Adult Male, Rectum: 0.25 μSv/MBq
[1]; Target Organ Red Marrow
  OLINDA dosimetry to Adult Male, Red Marrow: 1.39 μSv/MBq
[1]; Target Organ Right Colon
  OLINDA dosimetry to Adult Male, Right Colon: 1.94 μSv/MBq
[1]; Target Organ Salivary Glands
  OLINDA dosimetry to Adult Male, Salivary Glands: 0.05 μSv/MBq
[1]; Target Organ Small Intestine
  OLINDA dosimetry to Adult Male, Small Intestine: 3.60 μSv/MBq
[1]; Target Organ Spleen
  OLINDA dosimetry to Adult Male, Spleen: 228.00 μSv/MBq
[1]; Target Organ Stomach Wall
  OLINDA dosimetry to Adult Male, Stomach Wall: 2.02 μSv/MBq
[1]; Target Organ Thymus
  OLINDA dosimetry to Adult Male, Thymus: 0.95 μSv/MBq
[1]; Target Organ Thyroid
  OLINDA dosimetry to Adult Male, Thyroid: 0.36 μSv/MBq
[1]; Target Organ Total Body
  OLINDA dosimetry to Adult Male, Today Body: 7.73 μSv/MBq
[1]; Target Organ Tumor
  OLINDA dosimetry to Adult Male, Tumor: 237.00 μSv/MBq
[1]; Target Organ Urinary Bladder Wall
  OLINDA dosimetry to Adult Male, Urinary Bladder Wall: 10.90 μSv/MBq
T-cells (CD3); Blood, 8 days after administration of therapy
  % Injected Dose/cc of 89Zr-DFO-anti-CD3 (ROI): 7.95 ± 0.75 % Injected Dose/cc
T-cells (CD3); Blood, 9 days after administration of therapy
  % Injected Dose/cc of 89Zr-DFO-anti-CD3 (ROI): 7.075 ± 0.94 % Injected Dose/cc
T-cells (CD3); Blood, 10 days after administration of therapy
  % Injected Dose/cc of 89Zr-DFO-anti-CD3 (ROI): 4.98 ± 0.61 % Injected Dose/cc
T-cells (CD3); Blood, 11 days after administration of therapy
  % Injected Dose/cc of 89Zr-DFO-anti-CD3 (ROI): 4.33 ± 1.40 % Injected Dose/cc
T-cells (CD3); Blood, 12 days after administration of therapy
  % Injected Dose/cc of 89Zr-DFO-anti-CD3 (ROI): 3.07 ± 1.23 % Injected Dose/cc
T-cells (CD3); Spleen, 8 days after administration of therapy
  % Injected Dose/cc of 89Zr-DFO-anti-CD3 (ROI): 15.65 ± 0.96 % Injected Dose/cc
T-cells (CD3); Spleen, 9 days after administration of therapy
  % Injected Dose/cc of 89Zr-DFO-anti-CD3 (ROI): 19.39 ± 3.46 % Injected Dose/cc
T-cells (CD3); Spleen, 10 days after administration of therapy
  % Injected Dose/cc of 89Zr-DFO-anti-CD3 (ROI): 18.45 ± 1.30 % Injected Dose/cc
T-cells (CD3); Spleen, 11 days after administration of therapy
  % Injected Dose/cc of 89Zr-DFO-anti-CD3 (ROI): 19.06 ± 2.34 % Injected Dose/cc
T-cells (CD3); Spleen, 12 days after administration of therapy
  % Injected Dose/cc of 89Zr-DFO-anti-CD3 (ROI): 18.54 ± 1.04 % Injected Dose/cc
T-cells (CD3); Tumor, 8 days after administration of therapy
  % Injected Dose/cc of 89Zr-DFO-anti-CD3 (ROI): 15.85 ± 3.12 % Injected Dose/cc
T-cells (CD3); Tumor, 9 days after administration of therapy
  % Injected Dose/cc of 89Zr-DFO-anti-CD3 (ROI): 14.94 ± 2.65 % Injected Dose/cc
T-cells (CD3); Tumor, 10 days after administration of therapy
  % Injected Dose/cc of 89Zr-DFO-anti-CD3 (ROI): 13.74 ± 3.74 % Injected Dose/cc
T-cells (CD3); Tumor, 11 days after administration of therapy
  % Injected Dose/cc of 89Zr-DFO-anti-CD3 (ROI): 12.20 ± 4.43 % Injected Dose/cc
T-cells (CD3); Tumor, 12 days after administration of therapy
  % Injected Dose/cc of 89Zr-DFO-anti-CD3 (ROI): 11.83 ± 5.22 % Injected Dose/cc
RM1-PGLS tumors; mouse, in vivo
  Relative body weight: decrease in relative body weight
RM1-PGLS tumors; overall survival post treatment, RM1-PGLS tumors, P < 0.0007 printed for 177Lu-RIMS-1
  Median OS: 30 days
In vivo; [4]
  tissue uptake at 2 h: 2.28 ± 0.29 %ID/g
  tissue uptake at 24 h: 0.11 ± 0.01 %ID/g
  tissue uptake at 72 h: 0.2 %ID/g
In vivo; [5]
  tissue uptake at 2 h: 1.03 ± 0.43 %ID/g
  tissue uptake at 24 h: 0.24 ± 0.1 %ID/g
  tissue uptake at 72 h: 0.14 ± 0.02 %ID/g
In vivo; [6]
  tissue uptake at 2 h: 0.83 ± 0.09 %ID/g
  tissue uptake at 24 h: 0.13 ± 0.11 %ID/g
  tissue uptake at 72 h: 0.03 ± 0.01 %ID/g
In vivo; [7]
  tissue uptake at 2 h: 15.3 ± 3.61 %ID/g
  tissue uptake at 24 h: 5.03 ± 2.2 %ID/g
  tissue uptake at 72 h: 1.66 ± 0.37 %ID/g
In vivo; [8]
  tissue uptake at 2 h: 23.4 ± 6.93 %ID/g
  tissue uptake at 24 h: 8.69 ± 1.53 %ID/g
  tissue uptake at 72 h: 7.28 ± 1.06 %ID/g
In vivo; [9]
  tissue uptake at 2 h: 0.27 ± 0.08 %ID/g
  tissue uptake at 24 h: 0.04 ± 0.03 %ID/g
  tissue uptake at 72 h: 0.02 ± 0.01 %ID/g
In vivo; [10]
  tissue uptake at 2 h: 1.98 ± 0.37 %ID/g
  tissue uptake at 24 h: 0.66 ± 0.24 %ID/g
  tissue uptake at 72 h: 0.23 ± 0.06 %ID/g
In vivo; [11]
  tissue uptake at 2 h: 0.55 ± 0.3 %ID/g
  tissue uptake at 24 h: 0.07 ± 0.02 %ID/g
  tissue uptake at 72 h: 0.05 ± 0.01 %ID/g
In vivo; [12]
  tissue uptake at 2 h: 10.3 ± 2.96 %ID/g
  tissue uptake at 24 h: 2.16 ± 0.73 %ID/g
  tissue uptake at 72 h: 1.14 ± 0.36 %ID/g
[2]; [13]
  tissue uptake at 2 h: 7.16 ± 2.68 %ID/g
  tissue uptake at 24 h: 6.04 ± 1.76 %ID/g
  tissue uptake at 72 h: 2.65 ± 1.03 %ID/g
[2]; [14]
  tissue uptake at 2 h: 1.65 ± 0.24 %ID/g
  tissue uptake at 24 h: 0.16 ± 0.01 %ID/g
[2]; [15]
  tissue uptake at 2 h: 3.36 ± 0.2 %ID/g
  tissue uptake at 24 h: 0.06 ± 0.01 %ID/g
  tissue uptake at 72 h: 0.01 ± 0.01 %ID/g
[2]; [16]
  tissue uptake at 2 h: 0.72 ± 0.15 %ID/g
  tissue uptake at 24 h: 0.17 ± 0.06 %ID/g
  tissue uptake at 72 h: 0.1 ± 0.04 %ID/g
[2]; [17]
  tissue uptake at 2 h: 1.28 ± 0.08 %ID/g
  tissue uptake at 24 h: 0.16 ± 0.02 %ID/g
  tissue uptake at 72 h: 0.06 ± 0.01 %ID/g
[2]; [18]
  tissue uptake at 2 h: 24.5 ± 2.58 %ID/g
  tissue uptake at 24 h: 6.24 ± 1.03 %ID/g
  tissue uptake at 72 h: 2.1 ± 0.31 %ID/g
[2]; [19]
  tissue uptake at 2 h: 7.95 ± 0.35 %ID/g
  tissue uptake at 24 h: 3.19 ± 0.38 %ID/g
  tissue uptake at 72 h: 1.36 ± 0.29 %ID/g
[2]; muscle, read-out: Biodistribution Muscle (% ID/g ± SD)
  tissue uptake at 2 h: 0.36 ± 0.06 %ID/g
[2]; [20]
  tissue uptake at 2 h: 1.15 ± 0.1 %ID/g
  tissue uptake at 24 h: 0.54 ± 0.8 %ID/g
[2]; [21]
  tissue uptake at 2 h: 2.32 ± 0.052 %ID/g
  tissue uptake at 24 h: 0.77 ± 0.31 %ID/g
  tissue uptake at 72 h: 0.29 ± 0.11 %ID/g
[3]; Spleen
  Total CD4+ T-cell population: 14.51 ± 2.24
  Total CD8+ T-cell population: 7.70 ± 0.84
[3]; Tumor
  Total CD4+ T-cell population: 2.07 ± 1.54
  Total CD8+ T-cell population: 4.72 ± 2.70
